Literature values as cited in article PMC11941745.

Experiments:
[1] = target: flotillin-1 (Homo sapiens) (UniProt O75955); test: SPR
[2] = target: flotillin-2 (Homo sapiens) (UniProt Q14254); test: SPR
Sequence of UniProt Q14254 (Q14254 2-428): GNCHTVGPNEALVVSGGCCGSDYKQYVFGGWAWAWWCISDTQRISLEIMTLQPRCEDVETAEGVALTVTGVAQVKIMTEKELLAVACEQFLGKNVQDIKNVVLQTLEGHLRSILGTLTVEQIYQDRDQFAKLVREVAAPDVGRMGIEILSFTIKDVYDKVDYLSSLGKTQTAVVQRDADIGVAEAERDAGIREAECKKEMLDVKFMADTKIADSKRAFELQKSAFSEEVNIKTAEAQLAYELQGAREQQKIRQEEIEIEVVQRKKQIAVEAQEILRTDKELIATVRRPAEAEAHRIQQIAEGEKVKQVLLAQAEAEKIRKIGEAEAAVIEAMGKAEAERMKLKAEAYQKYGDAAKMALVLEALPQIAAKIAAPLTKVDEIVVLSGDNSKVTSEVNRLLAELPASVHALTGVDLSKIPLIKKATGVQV

Sequence of UniProt O75955 (O75955 whole entry): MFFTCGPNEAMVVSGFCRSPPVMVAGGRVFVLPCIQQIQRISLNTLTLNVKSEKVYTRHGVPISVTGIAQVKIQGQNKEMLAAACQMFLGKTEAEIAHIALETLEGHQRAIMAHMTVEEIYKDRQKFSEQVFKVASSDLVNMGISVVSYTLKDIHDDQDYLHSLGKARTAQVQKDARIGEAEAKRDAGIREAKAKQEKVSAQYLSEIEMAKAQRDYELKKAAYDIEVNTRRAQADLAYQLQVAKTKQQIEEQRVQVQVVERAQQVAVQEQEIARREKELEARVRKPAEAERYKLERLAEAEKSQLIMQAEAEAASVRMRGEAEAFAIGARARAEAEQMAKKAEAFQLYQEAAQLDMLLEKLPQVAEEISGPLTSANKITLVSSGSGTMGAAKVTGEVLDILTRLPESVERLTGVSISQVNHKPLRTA

Substance: MPP1 (from UniProt Q00013)
- Kd [1]: 18.1 nM
- Kd [2]: 24.8 nM
